Measurements as given in article PMC12785156, “Hydroxylation of HPPD facilitates its PUB11-mediated ubiquitination and degradation in response to oxidative stress in Arabidopsis” (Plant Communications, 2025).

T1: full-length MBP-PUB11 (Arabidopsis thaliana, UniProt Q8GUG9 1-612)
T1 construct: U-box E3 ubiquitin ligase PUB11, Arabidopsis thaliana, full-length CDS in pMAL-C2x; not shown: MBP, N-terminal, kept
T1 sequence (looked up): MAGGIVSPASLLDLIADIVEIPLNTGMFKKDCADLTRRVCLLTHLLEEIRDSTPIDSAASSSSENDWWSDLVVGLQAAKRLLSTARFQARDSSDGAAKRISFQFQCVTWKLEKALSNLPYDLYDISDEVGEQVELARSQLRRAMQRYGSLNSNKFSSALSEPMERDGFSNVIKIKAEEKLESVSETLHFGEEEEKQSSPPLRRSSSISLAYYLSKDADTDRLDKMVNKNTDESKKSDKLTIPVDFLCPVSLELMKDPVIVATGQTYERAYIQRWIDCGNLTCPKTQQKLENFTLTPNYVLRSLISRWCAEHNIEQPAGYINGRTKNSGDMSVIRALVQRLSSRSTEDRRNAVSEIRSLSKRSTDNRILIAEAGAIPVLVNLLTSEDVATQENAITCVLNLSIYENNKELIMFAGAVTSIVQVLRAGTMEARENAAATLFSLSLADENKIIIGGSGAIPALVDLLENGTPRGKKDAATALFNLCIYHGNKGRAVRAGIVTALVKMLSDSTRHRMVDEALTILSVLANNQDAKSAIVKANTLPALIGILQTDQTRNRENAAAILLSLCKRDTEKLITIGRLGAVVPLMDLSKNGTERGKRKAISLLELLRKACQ

B1: GST-PUB11-ARM (domain or fragment)
chain: QPAGYINGRTKNSGDMSVIRALVQRLSSRSTEDRRNAVSEIRSLSKRSTDNRILIAEAGAIPVLVNLLTSEDVATQENAITCVLNLSIYENNKELIMFAGAVTSIVQVLRAGTMEARENAAATLFSLSLADENKIIIGGSGAIPALVDLLENGTPRGKKDAATALFNLCIYHGNKGRAVRAGIVTALVKMLSDSTRHRMVDEALTILSVLANNQDAKSAIVKANTLPALIGILQTDQTRNRENAAAILLSLCKRDTEKLITIGRLGAVVPLMDLSKNGTERGKRKAISLLELLRKACQ
modifications: GST carrier omitted. Limits not printed: ARM region taken as everything after the U-box (240-314) to the C-terminus
B2: His-AtHPPD (Arabidopsis thaliana 4-hydroxyphenylpyruvate dioxygenase) (enzyme, UniProt P93836 1-445, looked up)
chain: MGHQNAAVSENQNHDDGAASSPGFKLVGFSKFVRKNPKSDKFKVKRFHHIEFWCGDATNVARRFSWGLGMRFSAKSDLSTGNMVHASYLLTSGDLRFLFTAPYSPSLSAGEIKPTTTASIPSFDHGSCRSFFSSHGLGVRAVAIEVEDAESAFSISVANGAIPSSPPIVLNEAVTIAEVKLYGDVVLRYVSYKAEDTEKSEFLPGFERVEDASSFPLDYGIRRLDHAVGNVPELGPALTYVAGFTGFHQFAEFTADDVGTAESGLNSAVLASNDEMVLLPINEPVHGTKRKSQIQTYLEHNEGAGLQHLALMSEDIFRTLREMRKRSSIGGFDFMPSPPPTYYQNLKKRVGDVLSDDQIKECEELGILVDRDDQGTLLQIFTKPLGDRPTIFIEIIQRVGCMMKDEEGKAYQSGGCGGFGKGNFSELFKSIEEYEKTLEAKQLVG
notes: 4-hydroxyphenylpyruvate dioxygenase (AtHPPD), Arabidopsis thaliana, full-length CDS in pET-15b; For MST the His tag was labelled with RED-tris-NTA 2nd generation dye; A low level of self-hydroxylation of phenylalanines is reported also for the untreated protein; also called AtHPPD-WT; His-labeled AtHPPD; source: E. coli BL21(DE3), purified; not shown: His6, N-terminal, kept

What was measured:
[1] = target: B2; assay: MST; His-AtHPPD (or mutants) labelled with RED-tris-NTA 2nd generation, constant 400 nM; GST-PUB11-ARM serially diluted; 25°C; 20 mM HEPES pH 8.0, 100 mM NaCl; three repeats; conditions: both partners purified
full-length MBP-PUB11 = target: T1, full-length MBP-PUB11; assay: pull-down; purified MBP-PUB11 full length or truncated variants (or MBP alone) with purified His-AtHPPD, 4°C; immunoblot with anti-His and anti-MBP; conditions: both partners purified

Row | Kd [1] | binding result (full-length MBP-PUB11) | Binder
1 | 7.42 µM |  | B1
2 |  | binds | B2
